Experimental data from patent publication EP1018344A2.

target: HLA-A2.1 (as the chimeric class I molecule A2.1/K^b on Jurkat A2.1/K^b cells) (human; mouse), A*02:0; assay: cell-based or functional assay

Inhibition of release of serine esterase from CTL line 219, > 25%:
peptide 802.06 (HBc162-176) (from UniProt P03146 162-176)
peptide 799.10 (HBenv349-368)
peptide 802.03 (HBc91-110)
peptide 802.04 (HBc111-125) (from UniProt P03146 111-125)
peptide 800.04 (HBenv47-63) (from UniProt P03138 47-63)
peptide 799.09 (HBenv329-348)
peptide 799.08 (HBenv309-328)
peptide 799.02 (HBenv194-213) (from UniProt P03138 194-213)
peptide 802.01 (HBc11-27) (from UniProt P03146 11-27)
peptide 800.05 (HBenv63-77) (from UniProt P03138 63-77)
peptide 799.04 (HBenv234-253) (from UniProt P03138 234-253)
peptide 799.05 (HBenv246-265) (from UniProt P03138 246-265)
peptide 801.02 (HBenv141-157) (from UniProt P03138 141-157)
